The values that follow are results of earlier work, collected in article PMC5672955.

The target in the series is RNA polymerase (Escherichia coli) (UniProt P0A7Z4).

UvrD, sequence (P03018 whole entry): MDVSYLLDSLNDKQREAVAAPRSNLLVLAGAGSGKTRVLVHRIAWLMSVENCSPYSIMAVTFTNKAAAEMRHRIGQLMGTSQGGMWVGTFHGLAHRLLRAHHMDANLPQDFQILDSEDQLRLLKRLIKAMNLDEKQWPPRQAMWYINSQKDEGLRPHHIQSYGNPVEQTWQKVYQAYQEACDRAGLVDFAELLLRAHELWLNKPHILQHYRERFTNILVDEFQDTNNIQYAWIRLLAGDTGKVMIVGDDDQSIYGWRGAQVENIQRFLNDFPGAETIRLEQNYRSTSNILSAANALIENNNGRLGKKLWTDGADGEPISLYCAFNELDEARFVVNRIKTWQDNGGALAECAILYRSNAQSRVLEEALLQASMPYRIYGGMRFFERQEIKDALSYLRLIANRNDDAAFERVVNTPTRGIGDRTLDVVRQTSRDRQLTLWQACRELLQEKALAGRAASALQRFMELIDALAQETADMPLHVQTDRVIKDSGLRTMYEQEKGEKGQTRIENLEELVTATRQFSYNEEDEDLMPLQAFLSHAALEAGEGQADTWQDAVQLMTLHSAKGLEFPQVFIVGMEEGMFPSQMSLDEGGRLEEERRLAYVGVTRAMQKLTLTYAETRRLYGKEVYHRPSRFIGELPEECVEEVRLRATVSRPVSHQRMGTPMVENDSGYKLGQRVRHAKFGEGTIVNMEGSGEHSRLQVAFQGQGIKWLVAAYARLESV

A word on the Kd: it is the free concentration of one partner at which half of the binding sites on the other are occupied at equilibrium, for simple one-to-one binding. For UvrD (from UniProt P03018), the Kd was 35 nM.
